Experimental data as given in patent US9605283B2, “Microorganism modified for the production of 1,3-propanediol” (INSTITUT NATIONAL DES SCIENCES APPLIQUÉES, priority 2012, dated 2017).

What was measured:
Assay type in all cases: biochemical
[1] = Pyruvate decarboxylase activity (coupled to yeast alcohol dehydrogenase)
Experimental: OHB decarboxylase activity was assayed by coupling the decarboxylase activity to the NADPH-dependent reduction of the released 3-hydroxypropanal by purified aldehyde reductase, YqhD, from E. coli. The decarboxylation of pyruvate was coupled to the NADH-dependent reduction of acetaldehyde catalysed by yeast alcohol dehydrogenase. Branched-chain alpha-ketoacid decarboxylase activity was measured on 4-methyl-2-oxovaleric acid by coupling to the NADH-dependent reduction of 3-methylbutanal catalysed by horse liver alcohol dehydrogenase. […]

[2] = OHB decarboxylase activity (coupled to YqhD, NADPH); conditions: for OHB decarboxylase activity (in words): wild-type enzymes; for Effect of mutation on activity and/or specificity for OHB (in words): versus wild-type enzyme
Experimental: OHB decarboxylase activity was assayed by coupling the decarboxylase activity to the NADPH-dependent reduction of the released 3-hydroxypropanal by purified aldehyde reductase, YqhD, from E. coli. The decarboxylation of pyruvate was coupled to the NADH-dependent reduction of acetaldehyde catalysed by yeast alcohol dehydrogenase. Branched-chain alpha-ketoacid decarboxylase activity was measured on 4-methyl-2-oxovaleric acid by coupling to the NADH-dependent reduction of 3-methylbutanal catalysed by horse liver alcohol dehydrogenase. […] Reactions were started by adding 20 mM 2-oxo-4-hydroxybutyrate (OHB), 10 mM 4-methyl-2-oxovaleric acid (MOV), or 5 mM pyruvate.

[3] = Lactate dehydrogenase activity (natural substrate); conditions: natural substrate (L)-lactate; Table 2
[4] = DHB dehydrogenase activity of cytosolic enzymes (DHB-dependent reduction of NAD+)
Experimental: Activity of the cytosolic DHB dehydrogenases (Ec-Mdh, Bs-Mdh, Ll-LdhA) was assayed by following the DHB-dependent reduction of NAD^+.
The reaction mixture contained 60 mM Hepes (pH 8), 50 mM potassium chloride, 5 mM MgCl2, 10 mM NAD, (optionally, 5 mM fructose-1,6-bisphosphate (F16bP)) (all products from Sigma), and appropriate amounts of purified enzyme or cell extract. Reactions were started by adding 50 mM (L)-2,4-dihydroxybutyrate (Rhodia).
All enzymatic assays were carried out at 37° C. in 96-well flat bottomed microtiter plates in a final volume of 250 μL. The reactions were followed by the characteristic absorption of NADH at 340 nm (εNADH=6.22 mM^−1 cm^−1) or the absorbtion of DCIP at 655 nm (εDCIP=5.9 mM^−1 cm^−1) in a microplate reader (BioRad 680XR).

[5] = Malate dehydrogenase activity (natural substrate); conditions: Table 4; for Max. specific activity, malate: activity measured at 50 mM malate
[6] = natural substrate pyruvate, Table 8
[7] = when not saturated, activity estimated at 20 mM substrate, Table 8
[8] = activity measured at 50 mM pyruvate (Pdc mutants), Table 10
[9] = activity measured at 20 mM OHB, Table 10
[10] = activity measured at 50 mM DHB, Table 4

B1: Sc-Pdc1: pyruvate decarboxylase of Saccharomyces cerevisiae, SEQ ID No. 208 (protein, listed as Saccharomyces cerevisiae)
chain: MSEITLGKYLFERLKQVNVNTVFGLPGDFNLSLLDKIYEVEGMRWAGNANELNAAYAADGYARIKGMSCIITTFGVGELSALNGIAGSYAEHVGVLHVVGVPSISAQAKQLLLHHTLGNGDFTVFHRMSANISETTAMITDIATAPAEIDRCIRTTYVTQRPVYLGLPANLVDLNVPAKLLQTPIDMSLKPNDAESEKEVIDTILALVKDAKNPVILADACCSRHDVKAETKKLIDLTQFPAFVTPMGKGSIDEQHPRYGGVYVGTLSKPEVKEAVESADLILSVGALLSDFNTGSFSYSYKTKNIVEFHSDHMKIRNATFPGVQMKFVLQKLLTTIADAAKGYKPVAVPARTPANAAVPASTPLKQEWMWNQLGNFLQEGDVVIAETGTSAFGINQTTFPNNTYGISQVLWGSIGFTTGATLGAAFAAEEIDPKKRVILFIGDGSLQLTVQEISTMIRWGLKPYLFVLNNDGYTIEKLIHGPKAQYNEIQGWDHLSLLPTFGAKDYETHRVATTGEWDKLTQDKSFNDNSKIRMIEIMLPVFDAPQNLVEQAKLTAATNAKQ
- Max. specific activity, Natural substrate [1, 6]: 1.3 µmol/mg/min
- Max. specific activity, OHB [2, 7]: 0.055 µmol/mg/min
- OHB decarboxylase activity (in words) [2]: significant OHB decarboxylase activity

B2: Zm-Pdc: pyruvate decarboxylase of Zymomonas mobilis, SEQ ID No. 128 (protein, listed as Zymomonas mobilis)
chain: MSYTVGTYLAERLVQIGLKHHFAVAGDYNLVLLDNLLLNKNMEQVYCCNELNCGFSAEGYARAKGAAAAVVTYSVGALSAFDAIGGAYAENLPVILISGAPNNNDHAAGHVLHHALGKTDYHYQLEMAKNITAAAEAIYTPEEAPAKIDHVIKTALREKKPVYLEIACNIASMPCAAPGPASALFNDEASDEASLNAAVEETLKFIANRDKVAVLVGSKLRAAGAEEAAVKFADALGGAVATMAAAKSFFPEENPHYIGTSWGEVSYPGVEKTMKEADAVIALAPVFNDYSTTGWTDIPDPKKLVLAEPRSVVVNGIRFPSVHLKDYLTRLAQKVSKKTGALDFFKSLNAGELKKAAPADPSAPLVNAEIARQVEALLTPNTTVIAETGDSWFNAQRMKLPNGARVEYEMQWGHIGWSVPAAFGYAVGAPERRNILMVGDGSFQLTAQEVAQMVRLKLPVIIFLINNYGYTIEVMIHDGPYNNIKNWDYAGLMEVFNGNGGYDSGAGKGLKAKTGGELAEAIKVALANTDGPTLIECFIGREDCTEELVKWGKRVAAANSRKPVNKLL
- Max. specific activity, Natural substrate [1, 6]: 65 µmol/mg/min
- Max. specific activity, OHB [2, 7]: 0.052 µmol/mg/min
- OHB decarboxylase activity (in words) [2]: significant OHB decarboxylase activity

B3: Zm-Pdc W392Q: Z. mobilis pyruvate decarboxylase mutant W392Q, SEQ ID No. 190 (protein, listed as Zymomonas mobilis)
chain: MSYTVGTYLAERLVQIGLKHHFAVAGDYNLVLLDNLLLNKNMEQVYCCNELNCGFSAEGYARAKGAAAAVVTYSVGALSAFDAIGGAYAENLPVILISGAPNNNDHAAGHVLHHALGKTDYHYQLEMAKNITAAAEAIYTPEEAPAKIDHVIKTALREKKPVYLEIACNIASMPCAAPGPASALFNDEASDEASLNAAVEETLKFIANRDKVAVLVGSKLRAAGAEEAAVKFADALGGAVATMAAAKSFFPEENPHYIGTSWGEVSYPGVEKTMKEADAVIALAPVFNDYSTTGWTDIPDPKKLVLAEPRSVVVNGIRFPSVHLKDYLTRLAQKVSKKTGALDFFKSLNAGELKKAAPADPSAPLVNAEIARQVEALLTPNTTVIAETGDSQFNAQRMKLPNGARVEYEMQWGHIGWSVPAAFGYAVGAPERRNILMVGDGSFQLTAQEVAQMVRLKLPVIIFLINNYGYTIEVMIHDGPYNNIKNWDYAGLMEVFNGNGGYDSGAGKGLKAKTGGELAEAIKVALANTDGPTLIECFIGREDCTEELVKWGKRVAAANSRKPVNKLL
- Max. specific activity, Natural substrate [1, 8]: 1.39 µmol/mg/min
- Max. specific activity, OHB [2, 9]: 0.19 µmol/mg/min
- Effect of mutation on activity and/or specificity for OHB (in words) [2]: increased activity and/or specificity for OHB

B4: Zm-Pdc W392L: Z. mobilis pyruvate decarboxylase mutant W392L, SEQ ID No. 192 (protein, listed as Zymomonas mobilis)
chain: MSYTVGTYLAERLVQIGLKHHFAVAGDYNLVLLDNLLLNKNMEQVYCCNELNCGFSAEGYARAKGAAAAVVTYSVGALSAFDAIGGAYAENLPVILISGAPNNNDHAAGHVLHHALGKTDYHYQLEMAKNITAAAEAIYTPEEAPAKIDHVIKTALREKKPVYLEIACNIASMPCAAPGPASALFNDEASDEASLNAAVEETLKFIANRDKVAVLVGSKLRAAGAEEAAVKFADALGGAVATMAAAKSFFPEENPHYIGTSWGEVSYPGVEKTMKEADAVIALAPVFNDYSTTGWTDIPDPKKLVLAEPRSVVVNGIRFPSVHLKDYLTRLAQKVSKKTGALDFFKSLNAGELKKAAPADPSAPLVNAEIARQVEALLTPNTTVIAETGDSLFNAQRMKLPNGARVEYEMQWGHIGWSVPAAFGYAVGAPERRNILMVGDGSFQLTAQEVAQMVRLKLPVIIFLINNYGYTIEVMIHDGPYNNIKNWDYAGLMEVFNGNGGYDSGAGKGLKAKTGGELAEAIKVALANTDGPTLIECFIGREDCTEELVKWGKRVAAANSRKPVNKLL
- Max. specific activity, Natural substrate [1, 8]: 0.09 µmol/mg/min
- Max. specific activity, OHB [2, 9]: 0.04 µmol/mg/min
- Effect of mutation on activity and/or specificity for OHB (in words) [2]: increased activity and/or specificity for OHB

B5: Zm-Pdc G413N: Z. mobilis pyruvate decarboxylase mutant G413N, SEQ ID No. 194 (protein, listed as Zymomonas mobilis)
chain: MSYTVGTYLAERLVQIGLKHHFAVAGDYNLVLLDNLLLNKNMEQVYCCNELNCGFSAEGYARAKGAAAAVVTYSVGALSAFDAIGGAYAENLPVILISGAPNNNDHAAGHVLHHALGKTDYHYQLEMAKNITAAAEAIYTPEEAPAKIDHVIKTALREKKPVYLEIACNIASMPCAAPGPASALFNDEASDEASLNAAVEETLKFIANRDKVAVLVGSKLRAAGAEEAAVKFADALGGAVATMAAAKSFFPEENPHYIGTSWGEVSYPGVEKTMKEADAVIALAPVFNDYSTTGWTDIPDPKKLVLAEPRSVVVNGIRFPSVHLKDYLTRLAQKVSKKTGALDFFKSLNAGELKKAAPADPSAPLVNAEIARQVEALLTPNTTVIAETGDSWFNAQRMKLPNGARVEYEMQWNHIGWSVPAAFGYAVGAPERRNILMVGDGSFQLTAQEVAQMVRLKLPVIIFLINNYGYTIEVMIHDGPYNNIKNWDYAGLMEVFNGNGGYDSGAGKGLKAKTGGELAEAIKVALANTDGPTLIECFIGREDCTEELVKWGKRVAAANSRKPVNKLL
- Max. specific activity, Natural substrate [1, 8]: 0.1 µmol/mg/min
- Max. specific activity, OHB [2, 9]: 0.04 µmol/mg/min
- Effect of mutation on activity and/or specificity for OHB (in words) [2]: increased activity and/or specificity for OHB

B6: Ll-LdhA: (L)-lactate dehydrogenase of Lactococcus lactis, cytosolic, SEQ ID No. 120 (protein, listed as Lactococcus lactis)
chain: MADKQRKKVILVGDGAVGSSYAFALVNQGIAQELGIVDLFKEKTQGDAEDLSHALAFTSPKKIYSADYSDASDADLVVLTSGAPQKPGETRLDLVEKNLRITKDVVTKIVASGFKGIFLVAANPVDILTYATWKFSGFPKNRVVGSGTSLDTARFRQALAEKVDVDARSIHAYIMGEHGDSEFAVWSHANVAGVKLEQWFQENDYLNEAEIVELFESVRDAAYSIIAKKGATFYGVAVALARITKAILDDEHAVLPVSVFQDGQYGVSDCYLGQPAVVGAEGVVNPIHIPLNDAEMQKMEASGAQLKAIIDEAFAKEEFASAVKN
- Max. specific activity, Natural substrate [3]: 8.8 µmol/mg/min
- DHB dehydrogenase activity (in words) ([4]; cytosolic wild-type enzymes): have DHB dehydrogenase activity
- Max. specific activity, DHB ([4]; when not saturated, activity estimated at 50 mM substrate, Table 2): 1 µmol/mg/min

B7: Ec-MdhR81A D86S: E. coli malate dehydrogenase mutant R81A D86S, SEQ ID No. 170 (protein, listed as Escherichia coli)
chain: MKVAVLGAAGGIGQALALLLKTQLPSGSELSLYDIAPVTPGVAVDLSHIPTAVKIKGFSGEDATPALEGADVVLISAGVAAKPGMSRSDLFNVNAGIVKNLVQQVAKTCPKACIGIITNPVNTTVAIAAEVLKKAGVYDKNKLFGVTTLDIIRSNTFVAELKGKQPGEVEVPVIGGHSGVTILPLLSQVPGVSFTEQEVADLTKRIQNAGTEVVEAKAGGGSATLSMGQAAARFGLSLVRALQGEQGVVECAYVEGDGQYARFFSQPLLLGKNGVEERKSIGTLSAFEQNALEGMLDTLKKDIALGEEFVNK
- Max. specific activity, malate [5]: 0.42 µmol/mg/min
- Max. specific activity, DHB [4, 10]: 0.79 µmol/mg/min

B8: Ec-MdhR81A D865 G179D: E. coli malate dehydrogenase mutant R81A D86S G179D (printed D865), SEQ ID No 172 (protein, listed as Escherichia coli)
chain: MKVAVLGAAGGIGQALALLLKTQLPSGSELSLYDIAPVTPGVAVDLSHIPTAVKIKGFSGEDATPALEGADVVLISAGVAAKPGMSRSDLFNVNAGIVKNLVQQVAKTCPKACIGIITNPVNTTVAIAAEVLKKAGVYDKNKLFGVTTLDIIRSNTFVAELKGKQPGEVEVPVIGGHSDVTILPLLSQVPGVSFTEQEVADLTKRIQNAGTEVVEAKAGGGSATLSMGQAAARFGLSLVRALQGEQGVVECAYVEGDGQYARFFSQPLLLGKNGVEERKSIGTLSAFEQNALEGMLDTLKKDIALGEEFVNK
- Max. specific activity, malate [5]: 0.64 µmol/mg/min
- Km ([5]; read-out: Km, malate): 4 mM
- Max. specific activity, DHB [4, 10]: 2.51 µmol/mg/min
- Km ([4]; ns = not saturated at concentrations of up to 100 mM, Table 4): 25 mM
